# Test results as given in article PMC4381924.
# Several values for one entry are separate records, joined by “and”; a condition that tells them apart may be missing. Identical values can stand only once.
# Key:
# IGF1R ECD-TM-fp (human) [1] = target: IGF1R ECD-TM-fp (human)
# [2] = target: IGF1R ECDΔL1-TM-fp (human); experiment: FRET or BRET; quantitative imaging FRET (QI-FRET) in plasma-membrane vesicles derived from transiently co-transfected CHO cells; EYFP donor, mCherry acceptor; confocal microscopy at room temperature; intrinsic FRET corrected for proximity FRET and donor-to-acceptor ratio; without IGF1
# [3] = target: IGF1R ECD-TM-fp H905C (human); experiment: as above
# IGF1R TM-fp (human) = experiment: FRET or BRET; spectrally resolved two-photon FRET on living, serum-starved CHO cells; mTurquoise donor, EYFP acceptor; FRET efficiency per membrane pixel; without IGF1
# [4] = target: IGF1R TM-icd H905C (human); experiment: cross-linking; disulfide bond between introduced cysteines; HEK293 cells incubated with or without IGF1, lysed in RIPA buffer with 10 mM iodoacetamide; non-reducing against reducing SDS-PAGE, anti-IGF1Rβ Western blot
# IGF1R ECD-TM-fp (human) [5] = experiment: FRET or BRET; quantitative imaging FRET (QI-FRET) in plasma-membrane vesicles derived from transfected CHO cells; intrinsic FRET corrected for proximity FRET and donor-to-acceptor ratio; with IGF1
# IGF1R ECD-TM-fp (human) [6] = experiment: FRET or BRET; spectrally resolved two-photon FRET on living, serum-starved CHO cells; mTurquoise donor, EYFP acceptor; FRET efficiency per membrane pixel; with IGF1
# Sequence of IGF1R ECD-TM-fp (P08069 741-935): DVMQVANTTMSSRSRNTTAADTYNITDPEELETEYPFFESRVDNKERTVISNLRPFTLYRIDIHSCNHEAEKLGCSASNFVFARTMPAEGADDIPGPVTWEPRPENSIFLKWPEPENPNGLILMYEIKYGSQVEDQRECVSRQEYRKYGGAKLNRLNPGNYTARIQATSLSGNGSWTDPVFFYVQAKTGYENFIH
# Sequence of IGF1 (P05019 49-118): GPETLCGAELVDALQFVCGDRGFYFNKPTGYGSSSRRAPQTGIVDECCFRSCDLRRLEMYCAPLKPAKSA
substance,measurement,setting,value
IGF1 (from UniProt P05019 49-118) (ligand),"FRET efficiency between co-transfected donor- and acceptor-tagged IGF1R ECD-TM-fp in membranes of live CHO cells, with against without ligand",IGF1R ECD-TM-fp (human) [1],2 fold
IGF1R ECDΔL1-TM-fp (domain or fragment),intrinsic FRET efficiency (y intercept of a horizontal line),[2],0.36
IGF1R ECD-TM-fp H905C (domain or fragment),intrinsic FRET efficiency (y intercept of a horizontal line),[3],0.38
IGF1R TM-fp (domain or fragment),FRET efficiency per membrane pixel (peak of a two state distribution),IGF1R TM-fp (human),0.37 and 0.33
IGF1R TM-icd H905C (domain or fragment),stoichiometry N,[4],2
IGF1R ECD-TM-fp (domain or fragment),intrinsic FRET efficiency (y intercept of a horizontal line),IGF1R ECD-TM-fp (human) [5],0.34
same,FRET efficiency per membrane pixel (peak of a normal distribution),IGF1R ECD-TM-fp (human) [6],0.34
